According to PMC7782405 (Molecular Imaging and Biology, 2020):

What was measured:
U-87MG cells = experiment: Cell internalization assay; type: cell-based, human; settings: for specific surface-bound fraction: all time points
Method: For cell internalization, U-87MG cells were seeded at a density of 10^6 cells per well in 6-well plates and incubated overnight with medium (Dulbecco modified Eagle medium with GlutaMAX containing 10 % fetal bovine serum, 1 % 10,000 U ml^−1 penicillin and 10,000 U ml^−1 streptomycin, 1 % sodium-pyruvate 100 mM). After 24 h, the medium was removed and the cells were washed with PBS. Approximately 2.5 pmol of [^64Cu]Cu-8 and [^64Cu]Cu-9 was added to the cells (in triplicates) to give a final volume of 1.5 ml PBS in each well followed by incubation for 1 h at 37 °C, 5 % CO2. […] At each time point, the internalization was stopped by removing the medium and washing the cells twice with ice-cold PBS. To remove the receptor-bound radioligand, an acid wash was carried out twice with a 0.1 M glycine buffer pH 2.8 for 5 min on ice. Finally, cells were solubilized with 1 N NaOH. Radioactivity of cell fractions (supernatant, receptor-bound, and internalized) was measured by a Perkin Elmer gamma counter. Experiments were performed twice in triplicate.

in vivo [1] = experiment: in vivo; design: species or system mice; settings: female, athymic Balb/c nude, mouse, in vivo, iv, total radioactivity
Method: (§1) All animal experiments complied with the current laws of the Federal Republic of Germany and were conducted according to German Animal welfare guidelines. Normal female athymic Balb/c nude mice (17–20 g, 4–6 weeks old) were obtained from Janvier SAS (St. Berthevin Cedex, France). Mice were provided with food and water ad libitum. U-87MG tumors were induced on the right shoulder by sub-cutaneous injection of 5 × 10^6 cells in a 100 μl cell suspension of a 1:1 v/v mixture of media with reconstituted basement membrane (GFR BD Matrigel™, Corning BV, Amsterdam, Holland). For each compound, a total of three animals were injected with [^64Cu]Cu-8 and [^64Cu]Cu-9 (~ 500 pmol, 7–11 MBq) in 100 μl sterile filtered phosphate-buffered saline via a tail vein. At 1 h p.i., animals were sacrificed by isoflurane anesthesia. Organs of interest were dissected, weighed, and assayed for radioactivity in a gamma counter. The percent injected activity per gram (%IA g^−1) for each tissue was calculated by comparison of the tissue counts to a standard sample prepared from the injectate.

[2] = system: mice bearing U-87MG xenografts; experiment: in vivo; settings: for reduction of uptake in U-87MG xenografts by co-injection of c(RGDfK) 7: 1 h p.i.
Method: as §1

in vivo [3] = experiment: in vivo; design: species or system mice; settings: female, athymic Balb/c nude, mouse, iv, total radioactivity, Tumor uptake (PET)
Method: (§2) All animal experiments complied with the current laws of the Federal Republic of Germany and were conducted according to German Animal welfare guidelines. Normal female athymic Balb/c nude mice (17–20 g, 4–6 weeks old) were obtained from Janvier SAS (St. Berthevin Cedex, France). Mice were provided with food and water ad libitum. U-87MG tumors were induced on the right shoulder by sub-cutaneous injection of 5 × 10^6 cells in a 100 μl cell suspension of a 1:1 v/v mixture of media with reconstituted basement membrane (GFR BD Matrigel™, Corning BV, Amsterdam, Holland). Static and dynamic PET imaging experiments were conducted on a microPET Focus 120 scanner (Concorde Microsystems). For dynamic PET imaging studies, approximately 5 min prior to recording PET images, mice (n = 3) were anesthetized by inhalation of 2–3 % isoflurane/oxygen gas mixture, fitted with an intravenous catheter and placed on the scanner bed in the prone position. Anesthesia was maintained using 1–2 % isoflurane. For all experiments, animals were injected with 100 μl sterile filtered phosphate-buffered saline formulations pH 7.4 of [^64Cu]Cu-8 and [^64Cu]Cu-9 (~ 500 pmol, 7–11 MBq). Dynamic scans were recorded from 0 to 1 h post radiotracer administration. List-mode data were acquired using a γ-ray energy window of 350–650 keV and a coincidence timing window of 6 ns. For the 24 h p.i. time point, mice were injected 24 h prior to image acquisition and placed in the cages. Five to ten minutes prior to static PET imaging, mice were anesthetized with isoflurane (2–4 % in air) and positioned in the scanner. Animals of the PET imaging studies were included in the ex vivo biodistribution studies (vide infra). Reconstruction was performed using unweighted OSEM2D. Image analysis was performed using AMIDE. Image counts per second per voxel (cps/voxel) were calibrated to activity concentrations (Bq ml^−1) by measuring a 3.5-cm cylinder phantom filled with a known concentration of radioactivity.

[4] = system: mice bearing U-87MG xenografts; experiment: in vivo; settings: mouse
Method: as §2

[5] = female, athymic Balb/c nude, mouse, in vivo, iv, 1 h

SMILES	receptor-mediated (αvß3-specific) internalization (U-87MG cells; 4 h)	receptor-mediated (αvß3-specific) internalization (U-87MG cells; after 30 min)	specific surface-bound fraction (U-87MG cells)	tissue to tissue ratio at 1 h (in vivo [1]; Tumor-to-blood ratio)	tissue to tissue ratio at 1 h (in vivo [1]; Tumor-to-kidney ratio)	tissue to tissue ratio at 1 h (in vivo [1]; Tumor-to-liver ratio)	tissue to tissue ratio at 1 h (in vivo [1]; Tumor-to-muscle ratio)	reduction of uptake in U-87MG xenografts by co-injection of c(RGDfK) 7 [2]	Tumor-to-blood ratio [2, 5]	Tumor-to-kidney ratio ([2]; mouse, in vivo)	Tumor-to-liver ratio ([2]; mouse, in vivo)	tissue uptake per volume at 1 h (in vivo [3]; 5 mg/kg)	tissue uptake per volume at 1 h (in vivo [3])	liver uptake, normal vs blocking groups (PET) [4]	time to maximum tumor accumulation (TAC) [4]	Tumor-to-liver ratio [2, 5]	fold higher tumor uptake compared with the monomer [^64Cu]Cu-8 ([2]; mouse, in vivo)	fold higher tumor uptake compared with the monomeric counterpart (PET images) [4]
Cn1ccnc1CN1CCN(CC(=O)NCCCC[C@@H]2NC(=O)[C@@H](Cc3ccccc3)NC(=O)[C@H](CC(=O)O)NC(=O)CNC(=O)[C@H](CCCNC(=N)N)NC2=O)CCN(Cc2nccn2C)CC1 [[^64Cu]Cu-8, metal not drawn]	1.4 ± 0.1%	0.2 ± 0.1%	≤ 0.1%	15 ± 3.05	0.86 ± 0.04	0.83 ± 0.1	10.5 ± 4.79	89%	14.37	0.86	0.84	0.91 ± 0.39 %ID/mL	2.61 ± 0.65 %ID/mL	No significant differences	5 to 10 min			
N=C(N)NCCC[C@@H]1NC(=O)[C@H](CCCCNC(=O)CCCCn2ccnc2CN2CCN(Cc3nccn3CCCCC(=O)NCCCC[C@@H]3NC(=O)[C@@H](Cc4ccccc4)NC(=O)[C@H](CC(=O)O)NC(=O)CNC(=O)[C@H](CCCNC(=N)N)NC3=O)CCN(Cc3nccn3CCCCC(=O)NCCCC[C@@H]3NC(=O)[C@@H](Cc4ccccc4)NC(=O)[C@H](CC(=O)O)NC(=O)CNC(=O)[C@H](CCCNC(=N)N)NC3=O)CC2)NC(=O)[C@@H](Cc2ccccc2)NC(=O)[C@H](CC(=O)O)NC(=O)CNC1=O [[^64Cu]Cu-9, metal not drawn]	8.7 ± 0.6%	0.7 ± 0.2%	≤ 0.1%		0.73 ± 0.11	1.03 ± 0.26	14.1 ± 3.83	60%		0.73		2.18 ± 0.66 %ID/mL	4.42 ± 1.1 %ID/mL	No significant differences	5 to 10 min	0.99	~ 2.5 fold	~ 2 fold
